One series deals with HLA-A*02 (Homo sapiens, UniProt P04439, D140Y/D185E/D98H/E176V/E277Q/G131W/G231S/I119V/I121R/I166T/I218V/L300P/L318F/N151K/N90K/P208A/P217A/Q86G/Q94H/R138H/R169H/T345S). Briefly: HLA-A*02 binding prediction (ANN, Immune Epitope Database Analysis Resource). As to conditions: KLL epitope versus homologs of other polyomaviruses.
A further series concerns MCC. Nature of the series: Clinical trial: avelumab plus MCPyV-specific T cells and HLA-upregulation (NCT02584829). Particulars: avelumab in addition to MCPyV-specific T cells and HLA-upregulation.
The target in series [1] is T1, Merkel cell polyomavirus T antigen (common to large and small T antigen) peptide on HLA-A*02:01 (human).
T1 peptide: KLLEIAPNC
Briefly: binding, other.

For series [2], the target named is T1, Merkel cell polyomavirus T antigen …. Nature of the series: IFN-g ELISA; COS-7 given HLA-A*02:01 and tLTAg plasmids (antigen processed); T cell clone or line. In general terms: In an ELISA, binding on a coated surface is turned into a signal by an enzyme label.
Description: IFN-γ in cell culture supernatants was assayed by ELISA according to manufacturer's recommendations (Human IFN gamma ELISA Ready-SET-Go Kit, affymetrix). […] Supernatants were assayed by ELISA as described above. […] After incubating for 24 hours, wells were transfected using FuGENE HD (Promega) at a 6:1 ratio of transfection reagent to DNA with 25 ng HLA-A*02:01 and limiting dilution of pDEST103-GFP-tLTAg (25-0.08 ng) plus irrelevant DNA (pcDNA-6/myc-His C, Gateway) to a total of 25 ng. 48 hours after transfection, 10^4 viable KLL-specific T cells in TCM were added to target wells in duplicate. […] Transfected COS-7 cells were harvested at 48 and 72 hours post-transfection to quantitate transfection efficiency by flow cytometry.
The target of series [3] is T2, Merkel cell polyomavirus T antigen (common to large and small T antigen) peptide on HLA-A*02:01 (human).
T2 peptide: KLLEIAPNC
Nature of the series: multimer staining.

In series [4] the target is T1, Merkel cell polyomavirus T antigen …. Briefly: multimer staining.
Series [5] has as its target T3, Merkel cell polyomavirus T antigen KLL epitope homolog (C-terminal cysteine replaced by alanine) peptide on … (human).
T3 peptide: KLLEIAPNA
Nature of the series: IFN-g ELISA; T2 + peptide titration; T cell clone or line.

“And” between values parts separate entries of the source, which are not always exact repeats. Equal entries are not always repeated.

In the case of KLLEIAPNC [MCPyV], the “predicted to bind to HLA-A*02 better than homologous peptides” value at HLA-A*02 is reported as “approximately 100 ×”.
In the case of avelumab, in the series on MCC (5 MCC patients), the objective response stood at 80%. In addition, in the series with MCC, the “duration of complete responses” value is given as above 1 year and the “toxicities with the addition of avelumab” value is “no increased toxicities”. For the same molecule, the “complete responses (CRs)” value in the series on MCC (of 5 MCC patients) was 3 patients.

B1: X389-8 (TCR, V domains shown)
Valpha: RKEVEQDPGPFNVPEGATVAFNCTYSNSASQSFFWYRQDCRKEPKLLMSVYSSGNEDGRFTAQLNRASQYISLLIRDSKLSDSATYLCVVTGTGGFKTIFGAGTRLFVKA
Vbeta: GEEVAQTPKHLVRGEGQKAKLYCAPIKGHSYVFWYQQVLKNEFKFLISFQNENVFDETGMPKERFSAKCLPNSPCSLEIQATKLEDSAVYFCASSSMSIAAGNTGELFFGEGSRLTVL
For B1, the binding result in series [1] was “recognises”.

B2: w830 clonotype 3 (TCR)
alpha TRAV38-1*01 TRAJ34*01 CDR3: CAYPSTDKLIF
beta TRBV19*01 TRBJ1-5*01 CDR3: CASSILGASNQPQHF
Turning to B2, the “EC50 of tLTAg plasmid DNA” value in series [2] came to 270000 ng/mL.

B3: w876 clonotype 6 (TCR)
alpha TRAV12-1*01 TRAJ3*01 CDR3: CVVPLYSSASKIIF
beta TRBV6-1*01 TRBJ1-1*01 CDR3: CASSDTPDLNTEAFF
B3: the binding result in series [3] and in series [4] was “recognises” in each case. Further, in series [5], the EC50 of peptide was 0.015 ng/mL and 0.035 ng/mL.

B4: w876 clonotype 14 (TCR)
alpha TRAV12-1*01 TRAJ27*01 CDR3: CVVPSAGKSTF
beta TRBV2*03 TRBJ2-5*01 CDR3: CASSEFAGQETQYF
In the case of B4, the “EC50 of tLTAg plasmid DNA” value in series [2] turned out to be 5400 ng/mL.

B5: w876 clonotype 8 (TCR)
alpha TRAV12-1*01 TRAJ3*01 CDR3: CVVYASKIIF
beta TRBV6-1*01 TRBJ1-1*01 CDR3: CASSDTPDLNTEAFF
On to B5, for which the “EC50 of tLTAg plasmid DNA” value in series [2] worked out at 4200 ng/mL.

B6: w830 clonotype 2 (TCR)
alpha TRAV38-1*01 TRAJ27*01 CDR3: CALTSGSRLTF
beta TRBV19*01 TRBJ1-5*01 CDR3: CASSIMLYSNQPQHF
As for B6, the “EC50 of tLTAg plasmid DNA” value in series [2] amounted to 140000 ng/mL.

B7: w876 clonotype 1 (TCR)
alpha TRAV12-1*01 TRAJ45*01 CDR3: CVVGEYSGGGADGLTF
beta TRBV28*01 TRBJ2-1*01 CDR3: CAIRAGASYNEQFF
For B7, the EC50 of peptide in series [5] worked out at 0.31 ng/mL. Besides, the “EC50 of tLTAg plasmid DNA” value in series [2] came out at 5600 ng/mL.

B8: w876 clonotype 19 (TCR)
alpha TRAV12-1*01 TRAJ45*01 CDR3: CVVYTGYSGGGADGLTF
beta TRBV10-2*01 TRBJ2-2*01 CDR3: CASSGQNTGELFF
Take B8: the binding result in series [3] and in series [4] was “recognises” throughout. Also, in series [5], the EC50 of peptide came to 0.92 ng/mL.

B9: w876 clonotype 16 (TCR)
alpha TRAV38-1*01 TRAJ23*01 CDR3: CAYNQGGKLIF
beta TRBV19*01 TRBJ2-1*01 CDR3: CASSTLSGTHNEQFF
As to B9, the binding result in series [3] and in series [4] was “recognises” throughout. In addition, the EC50 of peptide in series [5] was 0.12 ng/mL.

B10: w678 clonotype 1 (TCR)
alpha TRAV12-1*01 TRAJ43*01 CDR3: CVLNNNDMRF
beta TRBV10-3*01 TRBJ2-2*01 CDR3: CAIRQFDANTGELFF
For the molecule B10, in series [5], the EC50 of peptide is 0.43 ng/mL and 0.5 ng/mL and 0.47 ng/mL. Moreover, the “EC50 of tLTAg plasmid DNA” value in series [2] is 320 ng/mL.

B11: w876 clonotype 4 (TCR)
alpha TRAV12-1*01 TRAJ45*01 CDR3: CVVYTGYSGGGADGLTF
beta TRBV10-2*01 TRBJ2-2*01 CDR3: CASSVLNTGELFF
In the case of B11, the EC50 of peptide in series [5] was 0.31 ng/mL. Besides, the “EC50 of tLTAg plasmid DNA” value in series [2] was determined as 14000 ng/mL.

B12: w876 clonotype 10 (TCR)
alpha TRAV12-1*01 TRAJ37*02 CDR3: CVVYGSSNTGKLIF
beta TRBV10-3*01 TRBJ2-2*01 CDR3: CAIRRQDQNTGELFF
Regarding B12, the binding result in series [3] and in series [4] was “recognises” in each case. Also, the EC50 of peptide in series [5] worked out at 0.7 ng/mL.

B13: w876 clonotype 29 (TCR)
alpha TRAV12-1*01 TRAJ3*01 CDR3: CVVPLYSSASKIIF
beta TRBV10-2*01 TRBJ2-2*01 CDR3: CASSVLNTGELFF
As for B13, the EC50 of peptide in series [5] is 0.12 ng/mL and 0.16 ng/mL. Moreover, the “EC50 of tLTAg plasmid DNA” value in series [2] was determined as 3300 ng/mL.

B14: MCC1H (TCR, V domains shown)
Valpha: QQQVKQSPQSLIVQKGGISIINCAYENTAFDYFPWYQQFPGKGPALLIAIRPDVSEKKEGRFTISFNKSAKQFSLHIMDSQPGDSATYFCAVPNTGNQFYFGTGTSLTVIP
Vbeta: GAGVSQSPRYKVAKRGQDVALRCDPISGHVSLFWYQQALGQGPEFLTYFQNEAQLDKSGLPSDRFFAERPEGSVSTLKIQRTQQEDSAVYLCASSLIAGLSYEQYFGPGTRLTVT
For the molecule B14, in series [1], the binding result was “recognises”.

B15: X389-6 (TCR, V domains shown)
Valpha: ILNVEQSPQSLHVQEGDSTNFTCSFPSSNFYALHWYRWETAKSPEALFVMTLNGDEKKKGRISATLNTKEGYSYLYIKGSQPEDSATYLCAWNTDKLIFGTGTRLQVFP
Vbeta: DAGVIQSPRHEVTEMGQEVTLRCKPISGHNSLFWYRQTMMRGLELLIYFNNNVPIDDSGMPEDRFSAKMPNASFSTLKIQPSEPRDSAVYFCASSLAGDRSFGPGTRLTVT
On to B15, for which the binding result in series [1] is given as “recognises”.

B16: w876 clonotype 3 (TCR)
alpha TRAV19*01 TRAJ40*01 CDR3: CALGGGTFTSGTYKYIF
beta TRBV9*02 TRBJ2-2*01 CDR3: CASSVEDYTGELFF
As to B16, the EC50 of peptide in series [5] is 0.12 ng/mL. Besides, the “EC50 of tLTAg plasmid DNA” value in series [2] came out at 11000 ng/mL.

B17: w876 clonotype 13 (TCR)
alpha TRAV12-1*01 TRAJ45*01 CDR3: CVVTDTSGGGADGLTF
beta TRBV7-2*04 TRBJ2-3*01 CDR3: CASSLAGLAGTDTQYF
In the case of B17, in series [2], the “EC50 of tLTAg plasmid DNA” value was determined as 3900 ng/mL.

B18: w876 clonotype 5 (TCR)
alpha TRAV38-1*01 TRAJ23*01 CDR3: CAYNQGGKLIF
beta TRBV10-2*01 TRBJ2-2*01 CDR3: CASSVLNTGELFF
Turning to B18, the binding result in series [3] and in series [4] was “recognises” throughout. Further, in series [5], the EC50 of peptide was 0.11 ng/mL.

B19: w678 clonotype 3 (TCR)
alpha TRAV12-1*01 TRAJ45*01 CDR3: CVVATYSGGGADGLTF
beta TRBV19*01 TRBJ2-1*01 CDR3: CASSIIAGSSYNEQFF
For B19, the EC50 of peptide in series [5] is 0.022 ng/mL and 0.013 ng/mL. In series [2], the “EC50 of tLTAg plasmid DNA” value turned out to be 1000 ng/mL.

B20: w876 clonotype 9 (TCR)
alpha TRAV12-1*01 TRAJ43*01 CDR3: CVGNNNDMRF
beta TRBV10-3*01 TRBJ2-2*01 CDR3: CAISARDQNTGELFF
In the case of B20, the binding result in series [3] and in series [4] was “recognises” in each case. The EC50 of peptide in series [5] is 0.12 ng/mL and 0.24 ng/mL.
